Data from US20210373004A1.

Tests used:
[1] = molecular target: Flag-mCherry-ColErw-Cys-6His (Pectobacterium carotovorum); experiment: EIA 8 plex n° 2: colicin coated at 100 nM, Im-RLuc8 alone at 100 nM, luciferase signal
[2] = molecular target: Flag-mCherry-ColKhan-Cys-6His (Photorhabdus khanii); experiment: as above
[3] = molecular target: Flag-mCherry-ColKhan-Cys-6His (Photorhabdus khanii); experiment: EIA 8 plex n° 1: colicin coated at 100 nM, Im-RLuc8 alone at 100 nM, luciferase signal

Measured: RLU

B1: Myc-RLuc8-Im9-6His (protein)
chain: MGGEQKLISEEDLGGSASKVYDPEQRKRMITGPQWWARCKQMNVLDSFINYYDSEKHAENAVIFLHGNATSSYLWRHVVPHIEPVARCIIPDLIGMGKSGKSGNGSYRLLDHYKYLTAWFELLNLPKKIIFVGHDWGAALAFHYAYEHQDRIKAIVHMESVVDVIESWDEWPDIEEDIALIKSEEGEKMVLENNFFVETVLPSKIMRKLEPEEFAAYLEPFKEKGEVRRPTLSWPREIPLVKGGKPDVVQIVRNYNAYLRASDDLPKLFIESDPGFFSNAIVEGAKKFPNTEFVKVKGLHFLQEDAPDEMGKYIKSFVERVLKNEQKLELKHSISDYTEAEFLQLVTTICNADTSSEEELVKLVTHFEEMTEHPSGSDLIYYPKEGDDDSPSGIVNTVKQWRAANGKLEGGGSHHHHHH
> 100000 RLU: [1] | [2] | [3]
